First the molecules themselves.
B1: PTH(17-31) 22 Glu→Ala (peptide)
chain: SMERVAWLRKKLQDV
B2: PTH(17-31) 31 Val→Ala (peptide)
chain: SMERVEWLRKKLQDA
B3: PTH(17-31) (peptide)
peptide: SMERVEWLRKKLQDV
B4: PTH(17-31) 17 Ser→Ala (peptide)
chain: AMERVEWLRKKLQDV
B5: PTH(17-31) 30 Asp→Ala (peptide)
chain: SMERVEWLRKKLQAV
B6: PTH(17-31) 19 Glu→Ala (peptide)
chain: SMARVEWLRKKLQDV
B7: PTH(17-31) 26 Lys→Ala (peptide)
chain: SMERVEWLRAKLQDV
B8: PTH(17-31) 18 Met→Ala (peptide)
chain: SAERVEWLRKKLQDV
B9: PTH(17-31) 20 Arg→Ala (peptide)
chain: SMEAVEWLRKKLQDV
B10: PTH(17-31) 27 Lys→Ala (peptide)
chain: SMERVEWLRKALQDV
B11: PTH(17-31) 28 Leu→Ala (peptide)
chain: SMERVEWLRKKAQDV
B12: PTH(17-31) 29 Gln→Ala (peptide)
chain: SMERVEWLRKKLADV
B13: PTH(17-31) 23 Trp→Ala (peptide)
chain: SMERVEALRKKLQDV
B14: PTH(17-31) 25 Arg→Ala (peptide)
chain: SMERVEWLAKKLQDV
B15: PTH(17-31) 21 Val→Ala (peptide)
chain: SMERAEWLRKKLQDV
B16: PTH(17-31) 24 Leu→Ala (peptide)
chain: SMERVEWARKKLQDV

In patent US7057012 (dated 2006) one finds IC50 data, which are given here for 16 molecules.

A value given as a limit tells only on which side of the number the result lay.

This test deals with human PTH-2 receptor (human, UniProt P49190 25-550). The test is described as follows: competition binding vs 125I-rPTH(1-34), COS-7 cells.
human PTH-2 receptor, sequence (P49190 25-550): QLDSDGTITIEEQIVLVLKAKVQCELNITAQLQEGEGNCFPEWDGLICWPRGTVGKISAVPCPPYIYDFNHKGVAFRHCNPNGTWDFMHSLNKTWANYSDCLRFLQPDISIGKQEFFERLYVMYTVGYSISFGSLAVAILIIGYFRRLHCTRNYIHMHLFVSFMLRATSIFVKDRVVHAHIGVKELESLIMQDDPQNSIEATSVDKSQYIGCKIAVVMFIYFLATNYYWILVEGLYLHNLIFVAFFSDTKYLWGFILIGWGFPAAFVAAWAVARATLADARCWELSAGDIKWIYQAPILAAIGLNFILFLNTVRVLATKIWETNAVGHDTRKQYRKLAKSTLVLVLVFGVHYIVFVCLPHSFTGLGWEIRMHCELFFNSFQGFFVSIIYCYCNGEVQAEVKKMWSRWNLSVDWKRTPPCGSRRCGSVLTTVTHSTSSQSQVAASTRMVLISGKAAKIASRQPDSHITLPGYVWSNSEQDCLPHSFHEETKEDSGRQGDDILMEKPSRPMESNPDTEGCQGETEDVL
In general, IC50 refers to the concentration that inhibits the measured activity by half. The molecule B1 came in with an IC50 of 600 nM.

Molecule B2 had an IC50 of 3800 nM.

B3 returned an IC50 of 1000 nM.

With B4, the IC50 was 1500 nM.

Molecule B5 had an IC50 of 1100 nM.

On to B6, for which the IC50 is 700 nM.

Molecule B7 gave an IC50 of 8300 nM.

B8 displayed an IC50 of 1500 nM.

B9 registered an IC50 of 90500 nM.

B10 came in with an IC50 of 1100 nM.

The molecule B11 displayed an IC50 of 9900 nM.

Turning to B12, the IC50 amounted to 900 nM.

Turning to B13, the IC50 is more than 100000 nM.

B14 came in with an IC50 of 3800 nM.

B15 registered an IC50 of 1700 nM.

As to B16, the IC50 was determined as 67500 nM.
